Results reported in paper PMC8540780, “Biochemical and Molecular Characterization of the Rice Chalcone Isomerase Family” (Plants, 2021).

What was measured:
purified protein [1] = substrate: O=C(/C=C/c1ccc(O)cc1)c1c(O)cc(O)cc1O; test: purified protein; type: biochemical, Oryza sativa; details: 50 mM Tris pH 7.5, 0.1 µg enzyme per mL, substrate 1–50 µM
purified protein [2] = substrate: O=C(/C=C/c1ccc(O)cc1)c1ccc(O)cc1O; test: purified protein; details: 50 mM Tris pH 7.5, 500 µg enzyme (b24 prints 440 µg/mL for the activity test), substrate 1–50 µM

B1: OsCHI3 (Oryza sativa Japonica Group) (protein)
chain: MAAVSEVEVDGVVFPPVARPPGSGHAHFLAGAGVRGVEIAGNFIKFTAIGVYLEEGAAVPALAKKWAGKSADELAADAAFFRDVVTGDFEKFTRVTMILPLTGEQYSDKVTENCVAAWKAAGVYTDAEGAAADKFKEAFKPHSFPPGASILFTHSPPGVLTVAFSKDSSVPEGAVAAAAIENRALCEAVLDSIIGEHGVSPAAKRSIAARVSQLLKAESTGDVAAAEPAPVSA
notes: 233 aa; 28 kDa on SDS-PAGE
- Km (purified protein [1]): 11.60 ± 0.78 µM
- Vmax (purified protein [1]): 160 µmol/min/mg
- kcat (purified protein [1]): 69.3 s⁻¹
- kcat/Km (purified protein [1]): 5.98e+06 M⁻¹ s⁻¹
- Km (purified protein [2]): 50.95 ± 4.83 µM
- Vmax (purified protein [2]): 0.000212 µmol/min/mg
- kcat (purified protein [2]): 9.21e-05 s⁻¹
- kcat/Km (purified protein [2]): 1.81 M⁻¹ s⁻¹
